These results are taken from US20200247855A1, “THERAPY AND DIAGNOSTICS” (OXFORD UNIVERSITY INNOVATION LIMITED, priority 2017, published 2020).

In one test the target is CCL13_HUMAN (Homo sapiens, UniProt Q99616). Nature of the test: Biolayer interferometry (BLI) binding. In short, it runs like this: (§1)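 Ni-NTA biosensor loaded with His-tagged tick chemokine-binding protein; 300 nM chemokine cross-binding screen; hits repeated with chemokine dose series; Kd from fitted kinetic and equilibrium data.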
(In general: In BLI a coated tip is dipped into the sample, and binding shifts an interference pattern.)

The target of another test is T1, CCL17_HUMAN (Homo sapiens, UniProt Q92583).
T1 sequence (Q92583 24-94): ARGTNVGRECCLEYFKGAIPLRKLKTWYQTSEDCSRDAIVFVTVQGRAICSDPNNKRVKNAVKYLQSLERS
Nature of the test: Biolayer interferometry (BLI) binding. In short, it runs like this: as §1

Test [1] has as its target T2, CCL18_HUMAN (Homo sapiens, UniProt P55774).
T2 sequence (P55774 21-89): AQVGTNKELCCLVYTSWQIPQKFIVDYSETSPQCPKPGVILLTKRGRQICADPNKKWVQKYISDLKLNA
Nature of the test: Biolayer interferometry (BLI) binding. In short, it runs like this:
as §1

A further test concerns the target CCL20_HUMAN (Homo sapiens, UniProt P78556). Nature of the test: Biolayer interferometry (BLI) binding. In short, it runs like this: as §1
Another test deals with T3, CCL22_HUMAN (Homo sapiens, UniProt O00626).
T3 sequence (O00626 25-93): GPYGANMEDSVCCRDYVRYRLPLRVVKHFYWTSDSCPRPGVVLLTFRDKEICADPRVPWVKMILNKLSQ
Nature of the test: Biolayer interferometry (BLI) binding. In short, it runs like this:
as §1

The next test addresses T4, CCL24_HUMAN (Homo sapiens, UniProt O00175).
T4 sequence (O00175 27-119): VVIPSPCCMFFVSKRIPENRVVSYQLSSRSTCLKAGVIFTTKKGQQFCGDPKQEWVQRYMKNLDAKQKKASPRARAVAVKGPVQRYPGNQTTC
Nature of the test: Biolayer interferometry (BLI) binding. In short, it runs like this:
as §1

A further test has as its target T5, CCL4L1_HUMAN (Homo sapiens, UniProt Q8NHW4).
T5 sequence (Q8NHW4 24-92): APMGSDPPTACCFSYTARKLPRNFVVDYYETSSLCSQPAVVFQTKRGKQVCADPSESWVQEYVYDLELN
Nature of the test: Biolayer interferometry (BLI) binding. In short, it runs like this:
as §1

The target in test [2] is T6, CCL4_HUMAN (Homo sapiens, UniProt P13236).
T6 sequence (P13236 24-92): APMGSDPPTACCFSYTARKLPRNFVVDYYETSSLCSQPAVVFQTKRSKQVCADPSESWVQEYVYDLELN
Nature of the test: Biolayer interferometry (BLI) binding. In short, it runs like this:
as §1

Another test concerns the target CCL2_HUMAN (Homo sapiens, UniProt P13500). The conditions noted are these: data obtained from publications [20-22,32]; cited from earlier work.
For test [3], the target named is T6, CCL4_HUMAN. The conditions noted are these: data obtained from publications [20-22,32]; cited from earlier work.
The target of the next test is T7, CCL14_HUMAN (Homo sapiens, UniProt Q16627).
T7 sequence (Q16627 20-93): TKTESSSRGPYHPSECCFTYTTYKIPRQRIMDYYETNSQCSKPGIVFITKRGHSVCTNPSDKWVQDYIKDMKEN
The note with it: read-out: Kd, CCL14_HUMAN, previously described evasins; data obtained from publications [20-22,32]; cited from earlier work.

Test [4] deals with T2, CCL18_HUMAN. The note with it: read-out: Kd, CCL18_HUMAN, previously described evasins; data obtained from publications [20-22,32]; cited from earlier work.

For orientation: Kd means the free concentration of one partner at which half of the binding sites on the other are occupied at equilibrium, for simple one-to-one binding.

Where two headings read alike, the source gives them in different places.

CCL2_HUMAN, sequence (P13500 24-99): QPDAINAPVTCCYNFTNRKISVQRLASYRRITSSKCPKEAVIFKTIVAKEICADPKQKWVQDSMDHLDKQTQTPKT
CCL20_HUMAN, sequence (P78556 27-96): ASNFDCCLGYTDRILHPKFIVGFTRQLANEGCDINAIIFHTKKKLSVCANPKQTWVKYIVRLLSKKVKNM
CCL13_HUMAN, sequence (Q99616 17-98): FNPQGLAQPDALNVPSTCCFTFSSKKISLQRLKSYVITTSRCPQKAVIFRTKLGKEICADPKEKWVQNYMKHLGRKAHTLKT

B1: P1243_AMBAM: tick CKBP, Amblyomma americanum; AAM-02 stated identical (protein, listed as Amblyomma americanum)
chain: RNHTEDNSTEYYDYEEARCACPARHLNNTNGTVLKLLGCHYFCNGTLCTAPDGYPCYNLTAQQVRTLTTYPNTSCAVGVCMKGTCVKNGTMEQCFKTP
As to B1, the Kd with CCL13_HUMAN turned out to be 0.788 nM; with CCL17_HUMAN, 0.734 nM; in the test with CCL18_HUMAN [1], 0.00501 nM; with CCL20_HUMAN it was 8.34 nM; with CCL22_HUMAN, 22.3 nM; with CCL24_HUMAN it was 7.39 nM. Moreover, the Kd came to 35.4 nM with CCL4L1_HUMAN and 15.3 nM in the test with CCL4_HUMAN [2].

B2: EVASIN4: previously described tick CKBP evasin 4, from Rhipicephalus sanguineus (protein, listed as Rhipicephalus sanguineus)
chain: EVPQMTSSSAPDLEEEDDYTAYAPLTCYFTNSTLGLLAPPNCSVLCNSTTTWFNETSPNNASCLLTVDFLTQDAILQENQPYNCSVGHCDNGTCAGPPRHAQCW
As for B2, the “Kd, CCL2_HUMAN, previously described evasins” value with CCL2_HUMAN is reported as “No Binding”. In addition, in the test with CCL4_HUMAN [3], the “Kd, CCL4_HUMAN, previously described evasins” value is listed as “No Binding”. Further, the Kd in the test with CCL14_HUMAN was 0.14 nM; with CCL18_HUMAN [4], 0.03 nM.
